According to publication PMC12631311, “Molecular Insights into IAHSP: Influence of the R1611W Mutation on the VPS9 Domain of Alsin” (ACS Omega, 2025):
Where a chain is given by its changes, count along the chain named. Names may count otherwise. “And” between values parts separate entries of the source, which are not always exact repeats. Equal entries are not always repeated.

Target: the molecule itself
Assay: SEC; Superdex 200 Increase 10/300 GL, 50 mM potassium phosphate pH 8.0, 150 mM NaCl, 0.5 mL/min, room temperature; 310 ug VPS9 WT or 270 ug VPS9 R1611W injected; apparent molecular weights from column calibration

B1: human alsin VPS9 WT (C1551S/C1558S/C1647S) (domain or fragment, UniProt Q96Q42 1513-1657, looked up)
chain: KQPDIALLGFLGVQRKFWPATLSILGESKKVLPTTKDASFASAVESLQQISTTFTPSDKLKVIQQTFEEISQSVLASLHEDFLWSMDDLFPVFLYVVLRARIRNLGSEVHLIEDLMDPYLQHGEQGIMFTTLKASYYQIQREKLN
notes: alsin, human, VPS9 domain, residues 1513-1657 of UniProt Q96Q42, with three Cys to Ser changes in the construct called WT; Cloned in pET28b between NdeI and EcoRI; No cleavage of the tag is described; The N-terminal position is read from the forward primer (thrombin site before the ATG); The printed monomer mass of 16.6 kDa fits the domain without the tag; also called wild-type VPS9 domain
In the case of B1, the “stoichiometry N” value is reported as 4.

B2: human alsin VPS9 R1611W mutant (domain or fragment, UniProt Q96Q42 1513-1657, looked up)
chain: B1 chain with R99W
notes: alsin, human, VPS9 domain, residues 1513-1657 of UniProt Q96Q42; The pathological R1611W mutation was inserted by site-directed mutagenesis into the VPS9 WT (C1551S/C1558S/C1647S) construct; Same construct and tag as m1 with R1611W added; also called VPS R1611W
B2 was tested, and the “stoichiometry N” value was 4 and 6.
